Key:
[1] = system: Raji cell line (CD37-positive); test: FACS binding / antibodies bound per cell (BD Quantibrite PE), Raji; design: species or system human
Method: (§1) Binding of the anti-CD37 monoclonal antibody chHH1-HDP-LALA-D265C to the CD37-positive B-cell leukemia (B-CLL) cell lines MEC-1 and MEC-2 as well as to the human Burkitt lymphoma cell lines Raji and Ramos and to the human B-cell precursor leukemia cell line Nalm-6, which is known to be CD37-negative, were tested by fluorescence-activated cell sorting (FACS) analysis.
(§2) In order to estimate antibodies bound per cell (ABC) by flow cytometry, BD Quantibrite PE tubes (Becton Dickinson) were used, which were run at the same instrument settings as the assay, so that the FL2 axis can be converted into the number of PE molecules bound per cell. By using known ratios of PE to antibodies, PE molecules per cell can then be converted to the number of antibodies per cell (Iyer et al. 1997).

[2] = system: MEC-1 cell line (CD37-positive); test: FACS binding / antibodies bound per cell (BD Quantibrite PE), MEC-1
Method: as §1, §2

[3] = system: MEC-2 cell line (CD37-positive); test: FACS binding / antibodies bound per cell (BD Quantibrite PE), MEC-2
Method: as §1, §2

[4] = system: Ramos cell line (CD37-positive); test: FACS binding / antibodies bound per cell (BD Quantibrite PE), Ramos; design: species or system human
Method: as §1, §2

[5] = system: Nalm-6 cell line (CD37-negative); test: FACS binding / antibodies bound per cell (BD Quantibrite PE), Nalm-6; design: species or system human
Method: as §1, §2

CD37 = biological target: T1, CD37 (Homo sapiens, UniProt P11049); test: Biacore binding assay (surface-plasmon resonance); settings: CD37 construct Ala 113 to Asn 240 with Fc fusion tag, 31.25 nM to 500 nM
T1 construct: A CD37 construct comprising amino acids Ala 113 to Asn 240, expressed in HEK293 cells; Fc fusion tag (Thr 106 to Lys 330); host or cells: HEK293
T1 sequence (P11049 113-240): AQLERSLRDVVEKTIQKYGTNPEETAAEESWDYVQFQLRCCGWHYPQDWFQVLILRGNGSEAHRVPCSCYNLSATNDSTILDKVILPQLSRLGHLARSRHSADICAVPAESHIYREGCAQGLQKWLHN
Method: Binding of the monoclonal antibody chHH1-HDP-LALA-D265C to CD37 was confirmed by surface-plasmon resonance (Biacore) interaction analysis. 0.1 μM chHH1-HDP-LALA-D265C was captured using anti-Fab capture (FAB2G) biosensors. Alternatively, biotinylated monoclonal antibody chHH1-HDP-LALA-D265C was captured by streptavidin (SA) sensors. A CD37 construct comprising amino acids Ala 113 to Asn 240, expressed in HEK293 cells with an Fc fusion tag moiety (Thr 106 to Lys 330), was added to the sensor at concentrations of 31.25 nM to 500 nM (1:2 dilution steps), and binding of the CD37 construct was assessed.

Raji-Luc tumor xenograft = test: Disseminated Raji-Luc tumor xenograft model; assay type: in vivo, CB17 Scid mice; settings: 3.75 mg/kg (unconjugated antibody); day 89 after treatment
Method: Cytotoxic efficacy studies in vivo were performed using various anti-CD37 antibody amatoxin conjugates in a disseminated Raji-Luc tumor xenograft model over 89 days of treatment.
Tumor cell inoculation was done on day-3 by i.v. injection of 2.5×10^6 Raji-Luc cells in CB17 Scid mice. Treatment was performed on day 0 by single dose i.v. injection at maximum tolerable dose (MTD) of 1/16 and MTD of 1/64 doses of cynomolgus MTD, respectively. Readout of the study was body weight, bioluminescence and survival. Results are shown in FIG. 10 (body weight), FIG. 11 (bioluminescence) and FIG. 12 (survival) at day 89 after treatment. All groups treated with conjugate gained body weight as normal, in contrast to the control group.

cynomolgus CD37 = test: Cross reactivity with cynomolgus PBMCs by flow cytometry; assay type: binding
Method: Cross reactivity of the anti-CD37 chHH1-HDP-LALA-D265C with cynomolgus peripheral blood mononuclear cells (PBMCs) was assessed by flow cytometry. As control, human PBMCs were stained using the same set of antibodies. FACS analysis was done according to a standard protocol. In brief: PBMCs were resuspend in 300 μL staining medium (3.3×10^5 cells/50 μl staining medium). 50 μl cell suspension for each sample (=3.3×10^5 cells per sample) were piptted into one well of an U-well plate. 50 μl of pre-diluted isotype and antibody solutions were added to the samples in each well and incubated for 30 min on ice, followed by the addition of 100 μl ice-cold PBS and centrifugation at 4° C., 300 g, 6 min. The resulting supernatant was discarded and cells were washed with 200 μl ice-cold PBS, pH 7.4 followed by centrifugation at 4° C., 300 g, 6 min. The wash step was repeated once. The supernatant was discarded and cells resuspended in 100 μl of the secondary antibody solution. For the untreated sample (control) 100 μl staining medium were used. Cells were incubated for 30 min on ice protected from light. 100 μl ice-cold PBS were added and cells were centrifuge at 4° C., 300 g, 6 min. The supernatant was discarded and cells were washed twice with 200 μl ice-cold PBS, pH 7.4 and centrifuged at 4° C., 300 g, 6 min. […]

B1: chHH1-HDP-LALA-D265C: Unconjugated anti-CD37 antibody, heavy chain SEQ ID No. 11 (234Ala, 235Ala, 265Cys), light chain SEQ ID No. 12 (antibody)
heavy: EIQLQQSGPELVKPGASVKVSCKASGYSFTDYNMYWVKQSHGKSLEWIGYIDPYNGDTTYNQKFKGKATLTVDKSSSTAFIHLNSLTSEDSAVYYCARSPYGHYAMDYWGQGTSVTVSSASTKGPSVFPLAPSSKSTSGGTAALGCLVKDYFPEPVTVSWNSGALTSGVHTFPAVLQSSGLYSLSSVVTVPSSSLGTQTYICNVNHKPSNTKVDKKVEPKSCDKTHTCPPCPAPEAAGGPSVFLFPPKPKDTLMISRTPEVTCVVVCVSHEDPEVKFNWYVDGVEVHNAKTKPREEQYNSTYRVVSVLTVLHQDWLNGKEYKCKVSNKALPAPIEKTISKAKGQPREPQVYTLPPSREEMTKNQVSLTCLVKGFYPSDIAVEWESNGQPENNYKTTPPVLDSDGSFFLYSKLTVDKSRWQQGNVFSCSVMHEALHNHYTQKSLSLSPGK
light: DIVMTQSHKLLSTSVGDRVSITCKASQDVSTAVDWYQQKPGQSPKLLINWASTRHTGVPDRFTGSGSGTDYTLTISSMQAEDLALYYCRQHYSTPFTFGSGTKLEIKRTVAAPSVFIFPPSDEQLKSGTASVVCLLNNFYPREAKVQWKVDNALQSGNSQESVTEQDSKDSTYSLSSTLTLSKADYEKHKVYACEVTHQGLSSPVTKSFNRGEC
modifications: Heavy chain of chHH1-HDP-LALA-D265C comprising amino acid substitutions L235A, L235A and D265C; Light chain of chHH1-HDP, chHH1-HDP-265C, chHH1-HDP-LALA-D265C, respectively
B1 was tested, and the “binding by FACS analysis” value [1] was “bind strongly”, the “antibodies bound per cell (ABC) value” ([1]; flow cytometry) was 32,500 and the “binding by FACS analysis” value [2] was “bind strongly”. For the same molecule, the “antibodies bound per cell (ABC) value” ([2]; flow cytometry) was 33,004, the “binding by FACS analysis” value [3] was “bind strongly” and the “antibodies bound per cell (ABC) value” ([3]; flow cytometry) was 137,200. The “binding by FACS analysis” value [4] was “bind strongly”, the “antibodies bound per cell (ABC) value” ([4]; flow cytometry) was 31,500 and the “binding by FACS analysis” value ([5]; Nalm-6 (CD37-negative)) was “No binding was detected”. The “antibodies bound per cell (ABC) value” ([5]; Nalm-6, flow cytometry) was 42, the “binding to CD37 by surface-plasmon resonance (Biacore)” value (CD37) was “confirmed” and the Alive animals (Raji-Luc tumor xenograft) was 0/10. For the same molecule, the “specific binding to cynomolgus CD37” value (cynomolgus CD37) was “does not exhibit specific binding”.

— patent US20260000780A1, “B-LYMPHOCYTE SPECIFIC AMATOXIN ANTIBODY CONJUGATES” (priority 2021, published 2026)
